# Data taken from the DeepSol protein solubility set.
# Assay: soluble on expression in E. coli; label from the status in PepcDB or PDB records
row,Sequence,soluble on expression in E. coli
1,MGSDKIHHHHHHAIGFGLSYGTEIESIGLGLKYQYNITNPIRLEPSLNYFIENDNVSMLDINMNLHYLCPVGRSVKLYPLFGFTFSNWMFDLGDGFDIDVDGDHIHIDKDDDNHNECRVGVNIGGGADFALTSSWIMNFELRYQLVSDFDQAVFNLGFAYRF,not soluble
2,MAVDMFIKIGDVKGESKDKTHAEEIDVLAWSWGMSQSGSMHMGGGGGAGKVNVQDLSFTKYIDKSTPNLMMACSSGKHYPQAKLTIRKAGGENQVEYLIITLKEVLVSSVSTGGSGGEDRLTENVTLNFAQVQVDYQPQKADGAKDGGPVKYGWNIRQNVQA,soluble
3,MNWPLLYDMQRMLDRRIETEHGLMEEDLFARKQLAFLVELGELANETRCFKFWSIKPPAPAERVLEEYVDGLHFLLSLGLECGLFYEENEAPSAGRPLVEQFLAVFRAAERFGETRARGEYDALFAEYWRLGVALGFSSDDIEAAYRRKNEVNHKRQNERY,not soluble
4,MAHHHHHHSLRVVSGEFGGRPLKTLDGKITRPTSDKVRGAIFNMIGPYFNGGRVLDLFAGSGGLAIEAVSRGMSAAVLVEKNRKAQAIIQDNIIMTKAENRFTLLKMEAERAIDCLTGRFDLVFLDPPYAKETIVATIEALAAKNLLSEQVMVVCETDKTVLLPKEIATLGIWKEKIYGISKVTVYVNEG,soluble
5,MNRNRLPALTPGLAWSRPMNGAVDHKGYEQPTYDLEFAETATEIRRYGPYLVAEVTMAGDRSTAITRGFRVLARYIFGGNAESRRIEMTVPVSQLPAGEDLWTVRFTMPAVRSASLLPAPKDSRIRFVTVPPSRQAVRRFSGWPTDHALRRQAEGLAHWIAERGLPKREGPYFYFYDSPMTLPWQRRNEVAFGLGEGAAALEHHHHHH,not soluble
6,MEKLSSSSHFLDLGGLDNLRAQAQKDEKGALKKVAQQFEGVFVQMLMKSMRDANAVFESDSPLNSQYTKFYEQMRDQQLSVDLSDKGVLGLADMMVQQLSPESSPFTPASVLRNDGGMKLEHDAKALNIPTQTPSTAEAESANTPVVVAHGVPASIARPSVEFEDNNGVTSSLDIDRPQRLLAIDTPKPTWSEQPLSAIEPVISGQILPTVAFRETQKTLKFGSREEFLATLYPHAEKAAKALGTKPEVLLAQSALETGWGQKIVRGHNGAPSHNLFNIKADRRWQGDKANVSTLEFEQGIAVRQKADFRVYNDFDHSFNDFVSFIADGERYQDAKKVAASPTQFIRALQEAGYATDPKYAEKVIKVMQSISEELKSILPGEDK,not soluble
7,LVSSPSTLNPGTNVAKLAEQAPVHWVSVAQIENSLTGRPPMAVGFDIDDTVLFSSPGFWRGKKTYSPDSDDYLKNPAFWEKMNNGWDEFSIPKEAARQLIDMHVRRGDSIYFVTGRSQTKTETVSKTLADNFHIPAANMNPVIFAGDKPEQNTRVQWLQEKNMRIFYGDSDNDITAARDCGIRGIRILRAANSTYKPLPQAGAFGEEVIVNSEY,soluble
8,MKHHHHHHHHGGLVPRGSHGMTKKIVAIWAQDEEGVIGKDNRLPWYLPAELQHFKETTLNHAILMGRVTFDGMGRRLLPKRETLILTRNPEEKIDGVATFHDVQSVLDWYSAQEKNLYIVGGKQIFQAFEPYLDEVIVTHIHARVEGDTYFPAEFDLSLFETVSSKFYTKDEKNPYDFTIQYRKRKEVLE,soluble
9,MGSDKIHHHHHHMVKRMKLPESKNLSLYWEKYSFLLLEGSNSKDKEIVSKIFQTVEKLQSDFGKISSILKERREQLIKKRKPFINLKMRVKGKLLLGAGNPSSIEVGITLSRNYGLPIIPGTAVKGAFASFLFEFERDKYESLAHIFGDTEREGDLIFLDAIPVSDLKFSLDIVNPHFQPYYMKEKLPPNDWYDPVPIKYLVVSSGVFWFTVLESRSGVIGNSEKELIKQRFVEMLKAYGLGAKTSYGYGRFEEPS,not soluble
10,MAATQEEIVAGLAEIVNEIAGIPVEDVKLDKSFTDDLDVDSLSMVEVVVAAEERFDVKIPDDDVKNLKTVGDATKYILDHQA,soluble
11,MSLCDRSEVGDVSLGMFTLKDIKINNLTDPVVTGVTCHVASIEADLSLADPSDSSISCRQTGEITPEMIAQIDKSSSGEVVFQKSKSIFFKSMKIRRIFDAKNQTLMYLSYSTKETSGSFKHSLSTVPLWGTQAYNAFPETQNKEGHHHHHH,soluble
